The record followed here is the supplement of paper PMC9170038.

The test system of this data set is MS2 coat protein. Kind of data set: apparent KD of MS2 coat protein; designed switch direction (-1 OFF switch, 1 ON switch): 1; higher = weaker reporter binding. Put shortly:
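The apparent KD reported per design is the median over clusters of curve fits to normalised cluster fluorescence. The RNA switches were transcribed on Illumina chips by stalled E. coli RNA polymerase. SNAP-549-labelled MS2 coat protein was titrated from 0.7 or 1.5 nM, doubling up to 3 µM, in Tris-HCl pH 7.5 buffer containing KCl, MgCl2, BSA, DTT, tRNA and Tween-20, with no input, 200 uM small-molecule ligand, or an oligonucleotide input.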

The mark [1] stands for this setting: input ligand: microRNA oligo, concentration not stated.
The mark [2] stands for this setting: Eterna round: R95, input ligand: FMN 200 uM.
[3] abbreviates: Eterna round: R95, input ligand: microRNA oligo, concentration not stated.
The mark [4] stands for this setting: Eterna round: R95, input ligand: none.

Turning to “GCUAGAAUUAAAGCCAACAUGAGGAUCACCCAUGUAUGUUGGCAGGAUAUCGUUUGCAAAGCAAACGAGAAGGGCCAUACUAGC [Mat - Same State NG 3 - JL Mod - D22] (Eterna round: R96, puzzle: Same State NG 3)”, the “apparent KD of MS2 coat protein” value was determined as 33.4 nM (input ligand: FMN 200 uM), 87.5 nM under setting [1] and 118 nM (input ligand: none).

Consider “GCUAGAAUUAAAGCCAACAUGAGGAUCACCCAUGUAUGUUGGUAGGAUAUCGUUUGCAAAGCAAACGAGAAGGGCUAAACUAGC [Mat - Same State NG 3 - JL Mod - D16] (Eterna round: R96, puzzle: Same State NG 3)”, for which the “apparent KD of MS2 coat protein” value was determined as 97.9 nM (input ligand: FMN 200 uM), 80.2 nM under setting [1] and 93.8 nM (input ligand: none).

As for “GCUAGAAUUAAUGCCAACAUGAGGAUCACCCAUGUAUGUUGGCAGGAUAUCGUUUGCUUUGCAAACGAGAAGGGCUAAACUAGC [JL SSNG3 1.03] (Eterna round: R96, puzzle: Same State NG 3)”, the “apparent KD of MS2 coat protein” value runs as follows: (input ligand: FMN 200 uM) 217 nM; under setting [1], 170 nM; (input ligand: none) 217 nM.

In the case of “GCUAGAAUUAAUGCUAACAUGAGGAUCACCCAUGUAUGUUGGCAGGAUAUCGUUUGCAAAGCAAACGAGAAGGGCCAUACUAGC [Mat - Same State NG 3 - JL Mod - D25] (Eterna round: R96, puzzle: Same State NG 3)”, the “apparent KD of MS2 coat protein” value (input ligand: FMN 200 uM) came to 8.26 nM, the “apparent KD of MS2 coat protein” value under setting [1] worked out at 27.3 nM and the “apparent KD of MS2 coat protein” value (input ligand: none) amounted to 21.3 nM.

Regarding “GCUAGGAAUUAAGCCAACAUGAGGAUCACCCAUGUAUGUUGGUAGGAUAUCGUUUGCUUUGCAAACGAGAAGGGCUAACCUAGC [JL SSNG3 1.25] (Eterna round: R96, puzzle: Same State NG 3)”, the “apparent KD of MS2 coat protein” value was determined as 51 nM (input ligand: FMN 200 uM), 50.4 nM under setting [1] and 58.1 nM (input ligand: none).

For the sequence “GCUCGACGUGUUGUCUACAUGAGGAUCACCCAUGUAGGUGCGGAGGAUAUCUACGUGUUUCAUGUAGAGAAGGUCGUGUCGAGC [SameState NG3 #89] (Eterna round: R96, puzzle: Same State NG 3)”, the “apparent KD of MS2 coat protein” value (input ligand: FMN 200 uM) was 40.2 nM, the “apparent KD of MS2 coat protein” value under setting [1] stood at 55.3 nM and the “apparent KD of MS2 coat protein” value (input ligand: none) is 73.3 nM.

Consider “GCUCGAUGAAAGUCCUACAUGAGGAUCACCCAUGUACGUGGGCAGGAUAUCUACAUGCAGAAUGUAGAGAAGGGCCCAUCGAGC [SameState NG3 #59] (Eterna round: R96, puzzle: Same State NG 3)”, for which the “apparent KD of MS2 coat protein” value is, setting by setting: (input ligand: FMN 200 uM) 10.4 nM; under setting [1], 15.1 nM; (input ligand: none) 25.2 nM.

Turning to “GCUCGCACGAUGACCCACAUGAGGAUCACCCAUGUGUGUGGGUAGGAUAUCUAGAUUAAGGAUGUAGAGAAGGGCCGAGCGAGC [SameState NG3 #23] (Eterna round: R96, puzzle: Same State NG 3)”, the “apparent KD of MS2 coat protein” value (input ligand: FMN 200 uM) worked out at 576 nM, the “apparent KD of MS2 coat protein” value under setting [1] is 429 nM and the “apparent KD of MS2 coat protein” value (input ligand: none) was 600 nM.

As to “GCUCGGCUGAUGGCCCACAUGAGGAUCACCCAUGUGAGUGGGCAGGAUAUCUAGAUUAAGGAUGUAGAGAAGGGCCUACCGAGC [SameState NG3 #35] (Eterna round: R96, puzzle: Same State NG 3)”, the “apparent KD of MS2 coat protein” value was 443 nM (input ligand: FMN 200 uM), 106 nM under setting [1] and 244 nM (input ligand: none).

As for “GCUGCAAAGGCAGGAUAUGGGUCCAGAGCGCAAAUGCGCUCUGGUACAUGAGGAUCACCCAUGUCCCAGAAGGGCCCAAGCAGC [Inleedbi] (Eterna round: R96, puzzle: Same State NG 2)”, the “apparent KD of MS2 coat protein” value (input ligand: FMN 200 uM) was 17 nM, the “apparent KD of MS2 coat protein” value under setting [1] stood at 61.3 nM and the “apparent KD of MS2 coat protein” value (input ligand: none) turned out to be 117 nM.

With “GGAAACAAGAGAGGAUAUGCAGAGGAUCACCCUGCAGAAGGCUCCCUAGAGAGGAUAUGCAGAGGAUCACCCUGCAGAAGGCUC [pwkr ssNG DX.25] (Eterna round: R96, puzzle: Same State NG 1)”, the “apparent KD of MS2 coat protein” value reads like this: (input ligand: FMN 200 uM) 4.46 nM; under setting [1], 9.9 nM; (input ligand: none) 24.6 nM.

As to “GGAAAGAGGUCAGGAUAUGAAUGGUUGGGACAUGAGGAUCACCCAUGUAAUAGAAGAAAUCUACAUUAGAAGGGACAAGGAAGG [AK SSNG2-V2-5.1] (Eterna round: R96, puzzle: Same State NG 2)”, the “apparent KD of MS2 coat protein” value was found to be 129 nM (input ligand: FMN 200 uM), 116 nM under setting [1] and 212 nM (input ligand: none).

Consider “GGAAAGAGGUUAGGAUAUGCAUGGCUGGGACAUGAGGAUCACCCAUGUAAUAGAAGAAAUCUAGGGUAGAAGGGACAAGGAAGG [ssng2 v2 a] (Eterna round: R96, puzzle: Same State NG 2)”, for which the “apparent KD of MS2 coat protein” value by setting is: (input ligand: FMN 200 uM) 507 nM; under setting [1], 278 nM; (input ligand: none) 644 nM.

In the case of “GGAAUAUUUACAGGAUAUGAGUUGUAAAGUCGAUCAGAAGGGUAGGUGUCUUACACGGUGUGUUACAUGAGGAUCACCCAUGUU [SameState NG1 #20] (Eterna round: R96, puzzle: Same State NG 1)”, the “apparent KD of MS2 coat protein” value reads like this: (input ligand: FMN 200 uM) 136 nM; under setting [1], 147 nM; (input ligand: none) 215 nM.

As for “GGACGUCGAUAAUAUAACUUCACAUGAGGAUCACCCAUGUCACAGGAUAUGGAUCCUAAUUGGAUCCAGAAGGGUGCGACGUCC [Fiskers NG3ss - 36] (Eterna round: R96, puzzle: Same State NG 3)”, the “apparent KD of MS2 coat protein” value is, setting by setting: (input ligand: FMN 200 uM) 20.7 nM; under setting [1], 61.8 nM; (input ligand: none) 88.8 nM.

In the case of “GGACGUCGAUUUCCUACUUAAACAUGAGGAUCACCCAUGUCACAGGAUAUGAGUCCGAUUAGGACUCAGAAGGGUGCGACGUCC [Fiskers NG3ss - 52] (Eterna round: R96, puzzle: Same State NG 3)”, the “apparent KD of MS2 coat protein” value reads like this: (input ligand: FMN 200 uM) 22.7 nM; under setting [1], 11.1 nM; (input ligand: none) 18.8 nM.

As to “GGAGAGAGAGCACAGGAUAUUAGAGGAGAGACAUGAGGAUCACCCAUGUAAGAGAGAGAGGAGAGUGAGAAGGGUGAGAGAGAGG [Altered State 2-19 - Jieux - Same State 2] (puzzle: Same State 2)”, the “apparent KD of MS2 coat protein” value under setting [2] was found to be 241 nM, the “apparent KD of MS2 coat protein” value under setting [3] came out at 82.9 nM and the “apparent KD of MS2 coat protein” value under setting [4] is 213 nM.

Regarding “GGAGAGAGAGCGCAGGAUAUUCAAGGAGAGACAUGAGGAUCACCCAUGUAAGAGAGAGAGGAGAGGGAGAAGGGUGAGAGAGAGG [Altered State 2-12 - Jieux - Same State 2] (puzzle: Same State 2)”, the “apparent KD of MS2 coat protein” value under setting [2] was determined as 28.5 nM, the “apparent KD of MS2 coat protein” value under setting [3] amounted to 27.8 nM and the “apparent KD of MS2 coat protein” value under setting [4] was found to be 22 nM.

As for “GGAGAGAGAGCGGAGGAUAUUCAAGGAGAGACAUGAGGAUCACCCAUGUAAGAGAGAGAGGAGAGGGAGAAGGCUGAGAGAGAGG [Altered State 2-11 - Jieux - Same State 2] (puzzle: Same State 2)”, the “apparent KD of MS2 coat protein” value by setting is: under setting [2], 25.1 nM; under setting [3], 25.9 nM; under setting [4], 27.2 nM.

Regarding “GGAGCCGGCACCGAGGAUAUUCGUAUUAAAACAUGAGGAUCACCCAUGUAGGCCAGAAGGCCUUGGGAGAAGGCGGAUCGGCUCG [Xeonanis - 2] (puzzle: Same State 2)”, the “apparent KD of MS2 coat protein” value under setting [2] is 12.4 nM, the “apparent KD of MS2 coat protein” value under setting [3] is 65.2 nM and the “apparent KD of MS2 coat protein” value under setting [4] is 106 nM.

For “GGAGCCGGCACUGAGGAUAUUCAUAAUAAAACAUGAGGAUCACCCAUGUAGGCCAGAAGGCCUUGGGAGAAGGCAGGUCGGCUCG [Mat - Same State 2 - Mod of UCT - D65] (puzzle: Same State 2)”, the “apparent KD of MS2 coat protein” value was 16.7 nM under setting [2], 138 nM under setting [3] and 185 nM under setting [4].

“GGAGCCGGCACUGAGGAUAUUCAUAUUAAAACAUGAGGAUCACCCAUGUAGGCCAGAAGGCCUUGGGAGAAGGCGGAUCGGCUCG [Xeonanis - 14] (puzzle: Same State 2)”: the “apparent KD of MS2 coat protein” value reads like this: under setting [2], 78.7 nM; under setting [3], 181 nM; under setting [4], 1070 nM.

With “GGAGCCGGCACUGAGGAUAUUCAUUUUAAAACAUGAGGAUCACCCAUGUAGGCCAGAAGGCCUUGGGAGAAGGCAGGUCGGCCCG [Bibimoar - 6] (puzzle: Same State 2)”, the “apparent KD of MS2 coat protein” value was 18.4 nM under setting [2], 190 nM under setting [3] and 271 nM under setting [4].

Take “GGAGCCGGCCUAGGAUAUUUCAUAAAAAAACAUGAGGAUCACCCAUGUAGGCCAGAAGGCCUUGGGAAGAAGGAGGUCGGCUCC [Loop Effect - Control] (Eterna round: R96, puzzle: Same State NG 2)”: the “apparent KD of MS2 coat protein” value is 8.94 nM (input ligand: FMN 200 uM), 11.9 nM under setting [1] and 21.3 nM (input ligand: none).

Take “GGAGCCGGCCUAGGAUAUUUCAUAAAAAGACAUGAGGAUCACCCAUGUAGGCCAGAAGGCCUUGGGAAGAAGGAGGUCGGCUCC [Loop Effect - G29] (Eterna round: R96, puzzle: Same State NG 2)”: the “apparent KD of MS2 coat protein” value reads like this: (input ligand: FMN 200 uM) 20.8 nM; under setting [1], 22.7 nM; (input ligand: none) 32.9 nM.

Take “GGAGCCGGCCUAGGAUAUUUCAUAUAAAAACAUGAGGAUCACCCAUGUAGGCCAGAAGGCCUUGGGAAGAAGGAGGUCGGCUCC [Loop Effect - U25] (Eterna round: R96, puzzle: Same State NG 2)”: the “apparent KD of MS2 coat protein” value reads like this: (input ligand: FMN 200 uM) 12.4 nM; under setting [1], 27.2 nM; (input ligand: none) 30.1 nM.
